# Experimental data reported in patent publication US7332335.
# B1: recombinant PP5 (protein phosphatase 5) (protein)
# chain: MAMAEGERTECAEPPRDEPPADGALKRAEELKTQANDYFKAKDYENAIKFYSQAIELNPSNAIYYGNRSLAYLRTECYGYALGDATRAIELDKKYIKGYYRRAASNMALGKFRAALRDYETVVKVKPHDKDAKMKYQECNKIVKQKAFERAIAGDEHKRSVVDSLDIESMTIEDEYSGPKLEDGKVTISFMKELMQWYKDQKKLHRKCAYQILVQVKEVLSKLSTLVETTLKETEKITVCGDTHGQFYDLLNIFELNGLPSETNPYIFNGDFVDRGSFSVEVILTLFGFKLLYPDHFHLLRGNHETDNMNQIYGFEGEVKAKYTAQMYELFSEVFEWLPLAQCINGKVLIMHGGLFSEDGVTLDDIRKIERNRQPPDSGPMCDLLWSDPQPQNGRSISKRGVSCQFGPDVTKAFLEENNLDYIIRSHEVKAEGYEVAHGGRCVTVFSAPNYCDQMGNKASYIHLQGSDLRPQFHQFTAVPHPNVKPMAYANTLLQLGMM
# Molecular target: p53, P04637
# Sequence (P04637 whole entry, looked up): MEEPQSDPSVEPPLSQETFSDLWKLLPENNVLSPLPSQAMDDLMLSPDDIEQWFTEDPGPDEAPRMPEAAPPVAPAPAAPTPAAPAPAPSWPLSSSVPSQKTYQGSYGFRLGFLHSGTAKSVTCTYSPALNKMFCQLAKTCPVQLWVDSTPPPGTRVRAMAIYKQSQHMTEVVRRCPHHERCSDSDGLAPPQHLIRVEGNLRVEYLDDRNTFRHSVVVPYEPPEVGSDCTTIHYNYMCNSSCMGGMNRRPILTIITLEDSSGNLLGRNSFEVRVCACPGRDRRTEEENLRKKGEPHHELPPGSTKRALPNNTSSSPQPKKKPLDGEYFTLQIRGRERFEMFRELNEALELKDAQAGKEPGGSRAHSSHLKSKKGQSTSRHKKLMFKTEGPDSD
protein,measurement,value
B1,dephosphorylation of p53 in vitro,recombinant PP5 can dephosphorylate p53 in vitro
